Numbered stars: 1 amine (or outer) side, 2 acyl side, 3 side chain; on linkers, the order of the positions; unused ones are H or OH. Bridge positions count the residues as written; N and C are the ends. Side chains are listed from the residue outwards. Ends that are not written are not given here. * marks the point of attachment. C20 diacid = O=C(O)CCCCCCCCCCCCCCCCCCC(=O)*; C18 diacid = O=C(O)CCCCCCCCCCCCCCCCC(=O)*; γGlu = O=C(O)[C@H](CCC(=O)[*:2])N[*:1]
T1: rat amylin receptor (rat calcitonin receptor + rat RAMP 3) (rat, UniProt P32214 25-516; Q9JJ73 23-147)
T1 construct: whole, on cells; Used as membranes prepared from the transfected cells (Assay VI); also called rAmylin-R; rat amylin 3(a) receptor
T1 sequence (looked up) 1: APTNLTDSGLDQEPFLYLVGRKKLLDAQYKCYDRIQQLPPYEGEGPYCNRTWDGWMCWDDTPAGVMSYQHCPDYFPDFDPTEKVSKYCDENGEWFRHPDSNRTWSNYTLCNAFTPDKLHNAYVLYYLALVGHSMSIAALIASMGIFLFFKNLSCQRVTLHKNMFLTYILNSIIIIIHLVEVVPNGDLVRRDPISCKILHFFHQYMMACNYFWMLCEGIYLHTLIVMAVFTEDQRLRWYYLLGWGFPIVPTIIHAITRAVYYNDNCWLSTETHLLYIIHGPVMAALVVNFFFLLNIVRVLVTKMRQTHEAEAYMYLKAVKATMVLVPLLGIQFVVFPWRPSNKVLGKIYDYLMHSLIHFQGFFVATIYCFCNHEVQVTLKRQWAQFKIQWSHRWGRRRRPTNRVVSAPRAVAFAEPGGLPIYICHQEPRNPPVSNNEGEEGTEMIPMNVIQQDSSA
T1 sequence (looked up) 2: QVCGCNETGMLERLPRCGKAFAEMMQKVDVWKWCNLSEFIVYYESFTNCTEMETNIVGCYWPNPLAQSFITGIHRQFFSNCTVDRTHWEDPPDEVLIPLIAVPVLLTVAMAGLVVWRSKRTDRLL

T2: rat calcitonin receptor (rat, UniProt P32214 25-516)
T2 construct: whole, on cells; Used as membranes prepared from the transfected cells (Assay VIII); also called rCTR; rat calcitonin (a) receptor
T2 sequence (looked up): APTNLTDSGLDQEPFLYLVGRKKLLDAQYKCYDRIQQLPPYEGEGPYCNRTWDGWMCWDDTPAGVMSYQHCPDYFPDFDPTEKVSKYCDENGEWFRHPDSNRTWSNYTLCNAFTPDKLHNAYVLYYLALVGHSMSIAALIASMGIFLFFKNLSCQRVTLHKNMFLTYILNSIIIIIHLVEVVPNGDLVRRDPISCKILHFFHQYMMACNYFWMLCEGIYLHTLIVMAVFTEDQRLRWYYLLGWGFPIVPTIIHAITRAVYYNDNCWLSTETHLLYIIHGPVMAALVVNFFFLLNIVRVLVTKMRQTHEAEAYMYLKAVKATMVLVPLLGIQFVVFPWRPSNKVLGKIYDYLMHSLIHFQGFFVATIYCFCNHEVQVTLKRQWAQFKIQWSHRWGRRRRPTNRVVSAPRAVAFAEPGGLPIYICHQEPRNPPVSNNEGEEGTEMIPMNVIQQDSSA

T3: human calcitonin receptor (human, UniProt P30988 25-474)
T3 construct: whole, on cells; Used as membranes prepared from the transfected cells (Assay VII); also called hCTR; hCT
T3 sequence (looked up): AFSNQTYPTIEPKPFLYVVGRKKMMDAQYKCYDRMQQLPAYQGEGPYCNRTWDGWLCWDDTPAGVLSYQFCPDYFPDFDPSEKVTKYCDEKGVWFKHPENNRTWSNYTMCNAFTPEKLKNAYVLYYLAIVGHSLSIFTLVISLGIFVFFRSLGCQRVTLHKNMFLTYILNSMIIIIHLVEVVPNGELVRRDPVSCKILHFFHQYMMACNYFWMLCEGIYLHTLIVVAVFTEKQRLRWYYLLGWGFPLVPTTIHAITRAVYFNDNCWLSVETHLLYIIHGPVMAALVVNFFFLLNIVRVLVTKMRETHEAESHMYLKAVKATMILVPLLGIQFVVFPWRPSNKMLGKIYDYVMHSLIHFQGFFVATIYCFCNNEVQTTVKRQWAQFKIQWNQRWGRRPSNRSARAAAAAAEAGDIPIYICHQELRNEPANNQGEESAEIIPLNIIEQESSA


How the values were obtained:
[1] = biological target: T1, rat amylin receptor (rat calcitonin …); assay: SPA competition binding, displacement of 125I-rat amylin from membranes of BHK tk'ts 13 cells transfected with rat calcitonin receptor + rat RAMP 3 (Assay VI)
rat calcitonin receptor [2] = biological target: T2, rat calcitonin receptor; assay: SPA competition binding, displacement of 125I-calcitonin from membranes of BHK tk'ts 13 cells transfected with rat calcitonin receptor (Assay VIII)
[3] = biological target: T3, human calcitonin receptor; assay: ratio of IC50 on human calcitonin receptor (Assay VII) to IC50 on human amylin receptor (Assay V)
Procedure: The resulting pellet was resuspended, homogenized and centrifuged (20.000 rpm, 15 min) in a buffer containing 20 mM Na-HEPES and 0.1 mM EDTA (pH 7.4, buffer 2). The resulting pellet was resuspended in buffer 2 and protein concentration was measured (BCA protein Assay, Pierce). The homogenate was kept cold during the whole procedure. The membranes were kept at −80° C. until use. The assay was performed in a 384 well Optiplate (PerkinElmer) in a total volume of 40 ul. Membranes were mixed with SPA beads. Final concentration of membranes 35 ng/μL final and SPA beads was 0.05 mg/well. Test-compounds were dissolved in DMSO and further diluted in assay buffer (50 mM Hepes, pH 7.4, 1 mM CaCl2, 5 mM MgCl₂, 0.1% OA and 0.02% Tween20). […] The final mixture was incubated with shaking at 400 rpm for 120 min at 25° C. prior to centrifugation (1500 rpm, 10 min). Samples were analyzed on TopCounter™ (Packard). The IC₅₀ was calculated using (one site binding competition analysis) GraphPad Prism5 as a measure of receptor affinity.
Membranes were prepared in the following way; the cells were rinsed with PBS and incubated with Versene for approximately 5 min before harvesting. The cells were flushed with PBS and the cell-suspension was centrifuged for 5 min at 1000 rpm. Cells were homogenized (Ultrathurrax) in a buffer containing 20 mM Na-HEPES and 10 mM EDTA (pH 7.4) and centrifuged at 20.000 rpm for 15 min. The resulting pellet was resuspended, homogenized and centrifuged (20.000 rpm, 15 min) in a buffer containing 20 mM Na-HEPES and 0.1 mM EDTA (pH 7.4, buffer 2). The resulting pellet was resuspended in buffer 2 and protein concentration was measured (BCA protein Assay, Pierce). The homogenate was kept cold during the whole procedure. The membranes were kept at −80° C. until use. Assay was performed in a 384 well Optiplate (PerkinElmer) in a total volume of 40 ul. Membranes were mixed with SPA beads.

rat calcitonin receptor [4] = biological target: T2, rat calcitonin receptor; assay: ratio of IC50 on rat calcitonin receptor (Assay VIII) to IC50 on rat amylin receptor (Assay VI)

IC50 [1] [nM] | IC50 (rat calcitonin receptor [2]) [nM] | Ratio hCT/hAmylin binding [3] | Ratio rCT/rAmylin binding (rat calcitonin receptor [4]) | Binder
1.17 | 47 | 59.4 | 40.3 | K([γGlu-C18 diacid])CNTATCATQRLANFLRHSSPNFGAIPSSTNVGHNTY-NH2 (disulfide 2-7; N-terminus assumed; SMILES CC[C@H](C)[C@H](NC(=O)[C@H](C)NC(=O)CNC(=O)[C@H](Cc1ccccc1)NC(=O)[C@H](CC(N)=O)NC(=O)[C@@H]1CCCN1C(=O)[C@H](CO)NC(=O)[C@H](CO)NC(=O)[C@H](Cc1c[nH]cn1)NC(=O)[C@H](CCCNC(=N)N)NC(=O)[C@H](CC(C)C)NC(=O)[C@H](Cc1ccccc1)NC(=O)[C@H](CC(N)=O)NC(=O)[C@H](C)NC(=O)[C@H](CC(C)C)NC(=O)[C@H](CCCNC(=N)N)NC(=O)[C@H](CCC(N)=O)NC(=O)[C@@H](NC(=O)[C@H](C)NC(=O)[C@@H]1CSSC[C@H](NC(=O)[C@@H](N)CCCCNC(=O)CC[C@H](NC(=O)CCCCCCCCCCCCCCCCC(=O)O)C(=O)O)C(=O)N[C@@H](CC(N)=O)C(=O)N[C@@H]([C@@H](C)O)C(=O)N[C@@H](C)C(=O)N[C@@H]([C@@H](C)O)C(=O)N1)[C@@H](C)O)C(=O)N1CCC[C@H]1C(=O)N[C@@H](CO)C(=O)N[C@@H](CO)C(=O)N[C@H](C(=O)N[C@@H](CC(N)=O)C(=O)N[C@H](C(=O)NCC(=O)N[C@@H](Cc1c[nH]cn1)C(=O)N[C@@H](CC(N)=O)C(=O)N[C@H](C(=O)N[C@@H](Cc1ccc(O)cc1)C(N)=O)[C@@H](C)O)C(C)C)[C@@H](C)O, not restated for each compound) [N^ε1-[(4S)-4-carboxy-4-(17-carboxyheptadecanoylamino)butanoyl]-[Arg17,Pro21,Pro27,His34]-h-amylin]
0.104 | 5.43 | 21.2 | 52.2 | K([γGlu-C20 diacid])CNTATCATQRLAEFLRHSSPNFGAIPSSTNVGPHTY-NH2 (disulfide 2-7, not restated for each compound)
0.504 | 58.5 | 151 | 116 | K([γGlu-C20 diacid])CNTATCATQRLADFLRHSSPNFGAIPSSTNVGPRTY-NH2 (disulfide 2-7; N-terminus assumed; SMILES CC[C@H](C)[C@H](NC(=O)[C@H](C)NC(=O)CNC(=O)[C@H](Cc1ccccc1)NC(=O)[C@H](CC(N)=O)NC(=O)[C@@H]1CCCN1C(=O)[C@H](CO)NC(=O)[C@H](CO)NC(=O)[C@H](Cc1c[nH]cn1)NC(=O)[C@H](CCCNC(=N)N)NC(=O)[C@H](CC(C)C)NC(=O)[C@H](Cc1ccccc1)NC(=O)[C@H](CC(=O)O)NC(=O)[C@H](C)NC(=O)[C@H](CC(C)C)NC(=O)[C@H](CCCNC(=N)N)NC(=O)[C@H](CCC(N)=O)NC(=O)[C@@H](NC(=O)[C@H](C)NC(=O)[C@@H]1CSSC[C@H](NC(=O)[C@@H](N)CCCCNC(=O)CC[C@H](NC(=O)CCCCCCCCCCCCCCCCCCC(=O)O)C(=O)O)C(=O)N[C@@H](CC(N)=O)C(=O)N[C@@H]([C@@H](C)O)C(=O)N[C@@H](C)C(=O)N[C@@H]([C@@H](C)O)C(=O)N1)[C@@H](C)O)C(=O)N1CCC[C@H]1C(=O)N[C@@H](CO)C(=O)N[C@@H](CO)C(=O)N[C@H](C(=O)N[C@@H](CC(N)=O)C(=O)N[C@H](C(=O)NCC(=O)N1CCC[C@H]1C(=O)N[C@@H](CCCNC(=N)N)C(=O)N[C@H](C(=O)N[C@@H](Cc1ccc(O)cc1)C(N)=O)[C@@H](C)O)C(C)C)[C@@H](C)O, not restated for each compound)
1.16 | 26.3 | 26.4 | 22.7 | K([γGlu-C20 diacid])CNTATCATQRLAEFLRHSSPNFGAIPSSTNVGSHTY-NH2 (disulfide 2-7; N-terminus assumed; SMILES CC[C@H](C)[C@H](NC(=O)[C@H](C)NC(=O)CNC(=O)[C@H](Cc1ccccc1)NC(=O)[C@H](CC(N)=O)NC(=O)[C@@H]1CCCN1C(=O)[C@H](CO)NC(=O)[C@H](CO)NC(=O)[C@H](Cc1c[nH]cn1)NC(=O)[C@H](CCCNC(=N)N)NC(=O)[C@H](CC(C)C)NC(=O)[C@H](Cc1ccccc1)NC(=O)[C@H](CCC(=O)O)NC(=O)[C@H](C)NC(=O)[C@H](CC(C)C)NC(=O)[C@H](CCCNC(=N)N)NC(=O)[C@H](CCC(N)=O)NC(=O)[C@@H](NC(=O)[C@H](C)NC(=O)[C@@H]1CSSC[C@H](NC(=O)[C@@H](N)CCCCNC(=O)CC[C@H](NC(=O)CCCCCCCCCCCCCCCCCCC(=O)O)C(=O)O)C(=O)N[C@@H](CC(N)=O)C(=O)N[C@@H]([C@@H](C)O)C(=O)N[C@@H](C)C(=O)N[C@@H]([C@@H](C)O)C(=O)N1)[C@@H](C)O)C(=O)N1CCC[C@H]1C(=O)N[C@@H](CO)C(=O)N[C@@H](CO)C(=O)N[C@H](C(=O)N[C@@H](CC(N)=O)C(=O)N[C@H](C(=O)NCC(=O)N[C@@H](CO)C(=O)N[C@@H](Cc1c[nH]cn1)C(=O)N[C@H](C(=O)N[C@@H](Cc1ccc(O)cc1)C(N)=O)[C@@H](C)O)C(C)C)[C@@H](C)O, not restated for each compound)
1.06 | 86.1 | 28.5 | 81.1 | K([γGlu-C20 diacid])CNTATCATQRLAEFLRHSSPNFGAIPSSTNVGRETY-NH2 (disulfide 2-7; N-terminus assumed; SMILES CC[C@H](C)[C@H](NC(=O)[C@H](C)NC(=O)CNC(=O)[C@H](Cc1ccccc1)NC(=O)[C@H](CC(N)=O)NC(=O)[C@@H]1CCCN1C(=O)[C@H](CO)NC(=O)[C@H](CO)NC(=O)[C@H](Cc1c[nH]cn1)NC(=O)[C@H](CCCNC(=N)N)NC(=O)[C@H](CC(C)C)NC(=O)[C@H](Cc1ccccc1)NC(=O)[C@H](CCC(=O)O)NC(=O)[C@H](C)NC(=O)[C@H](CC(C)C)NC(=O)[C@H](CCCNC(=N)N)NC(=O)[C@H](CCC(N)=O)NC(=O)[C@@H](NC(=O)[C@H](C)NC(=O)[C@@H]1CSSC[C@H](NC(=O)[C@@H](N)CCCCNC(=O)CC[C@H](NC(=O)CCCCCCCCCCCCCCCCCCC(=O)O)C(=O)O)C(=O)N[C@@H](CC(N)=O)C(=O)N[C@@H]([C@@H](C)O)C(=O)N[C@@H](C)C(=O)N[C@@H]([C@@H](C)O)C(=O)N1)[C@@H](C)O)C(=O)N1CCC[C@H]1C(=O)N[C@@H](CO)C(=O)N[C@@H](CO)C(=O)N[C@H](C(=O)N[C@@H](CC(N)=O)C(=O)N[C@H](C(=O)NCC(=O)N[C@@H](CCCNC(=N)N)C(=O)N[C@@H](CCC(=O)O)C(=O)N[C@H](C(=O)N[C@@H](Cc1ccc(O)cc1)C(N)=O)[C@@H](C)O)C(C)C)[C@@H](C)O, not restated for each compound)

From US20140087995A1 (published 2014)
